Data set [1] concerns Pro061.
Data set [2] has as its system Pro054.
The test system of data set [3] is Pro064.
Data set [4] relates to Pro101.
In data set [5] the test system is Pro055.

Chain of MMP-2 protease (P08253 110-660): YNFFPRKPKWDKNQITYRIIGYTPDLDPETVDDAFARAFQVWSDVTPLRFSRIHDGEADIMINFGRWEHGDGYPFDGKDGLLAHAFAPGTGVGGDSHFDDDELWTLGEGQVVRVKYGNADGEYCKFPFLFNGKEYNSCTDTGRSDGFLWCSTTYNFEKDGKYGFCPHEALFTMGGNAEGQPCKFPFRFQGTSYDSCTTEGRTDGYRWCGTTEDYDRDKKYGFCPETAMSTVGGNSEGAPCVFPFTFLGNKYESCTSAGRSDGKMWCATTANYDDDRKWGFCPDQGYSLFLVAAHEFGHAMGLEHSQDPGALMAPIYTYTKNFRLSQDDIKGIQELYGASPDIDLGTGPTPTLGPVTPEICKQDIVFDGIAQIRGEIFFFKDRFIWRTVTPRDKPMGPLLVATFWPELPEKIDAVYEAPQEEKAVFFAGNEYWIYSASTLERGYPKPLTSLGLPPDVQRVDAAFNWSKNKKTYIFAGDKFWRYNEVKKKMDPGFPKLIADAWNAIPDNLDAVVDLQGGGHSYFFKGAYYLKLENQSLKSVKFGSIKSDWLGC
Chain of Pro064 (chain, as listed by the source): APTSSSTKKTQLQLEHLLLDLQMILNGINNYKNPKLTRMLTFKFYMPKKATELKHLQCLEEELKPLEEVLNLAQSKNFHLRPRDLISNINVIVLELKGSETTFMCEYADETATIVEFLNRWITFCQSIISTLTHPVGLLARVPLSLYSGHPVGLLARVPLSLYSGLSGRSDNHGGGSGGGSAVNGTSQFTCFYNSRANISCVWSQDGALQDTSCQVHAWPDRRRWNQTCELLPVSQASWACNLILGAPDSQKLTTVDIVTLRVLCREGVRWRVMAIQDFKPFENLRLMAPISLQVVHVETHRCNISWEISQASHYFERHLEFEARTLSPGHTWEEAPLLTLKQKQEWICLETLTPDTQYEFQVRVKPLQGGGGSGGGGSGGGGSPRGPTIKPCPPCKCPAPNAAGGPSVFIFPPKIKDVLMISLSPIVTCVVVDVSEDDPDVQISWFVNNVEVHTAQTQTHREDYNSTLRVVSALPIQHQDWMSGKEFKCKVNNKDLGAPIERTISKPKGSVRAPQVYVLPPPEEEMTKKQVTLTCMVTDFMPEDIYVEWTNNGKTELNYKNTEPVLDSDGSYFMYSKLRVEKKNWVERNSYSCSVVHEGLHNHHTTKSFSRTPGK
Chain of Pro054 (chain, as listed by the source): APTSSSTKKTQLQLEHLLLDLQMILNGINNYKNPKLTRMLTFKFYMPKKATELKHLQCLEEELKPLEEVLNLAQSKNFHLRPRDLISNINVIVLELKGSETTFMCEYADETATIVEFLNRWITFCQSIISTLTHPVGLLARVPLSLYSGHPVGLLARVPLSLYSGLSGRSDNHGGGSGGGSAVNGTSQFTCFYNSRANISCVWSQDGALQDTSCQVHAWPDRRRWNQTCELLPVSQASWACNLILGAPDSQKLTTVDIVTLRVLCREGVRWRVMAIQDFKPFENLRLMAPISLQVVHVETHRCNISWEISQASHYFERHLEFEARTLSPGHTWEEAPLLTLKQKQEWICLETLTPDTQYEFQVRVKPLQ
Chain of Pro061 (chain, as listed by the source): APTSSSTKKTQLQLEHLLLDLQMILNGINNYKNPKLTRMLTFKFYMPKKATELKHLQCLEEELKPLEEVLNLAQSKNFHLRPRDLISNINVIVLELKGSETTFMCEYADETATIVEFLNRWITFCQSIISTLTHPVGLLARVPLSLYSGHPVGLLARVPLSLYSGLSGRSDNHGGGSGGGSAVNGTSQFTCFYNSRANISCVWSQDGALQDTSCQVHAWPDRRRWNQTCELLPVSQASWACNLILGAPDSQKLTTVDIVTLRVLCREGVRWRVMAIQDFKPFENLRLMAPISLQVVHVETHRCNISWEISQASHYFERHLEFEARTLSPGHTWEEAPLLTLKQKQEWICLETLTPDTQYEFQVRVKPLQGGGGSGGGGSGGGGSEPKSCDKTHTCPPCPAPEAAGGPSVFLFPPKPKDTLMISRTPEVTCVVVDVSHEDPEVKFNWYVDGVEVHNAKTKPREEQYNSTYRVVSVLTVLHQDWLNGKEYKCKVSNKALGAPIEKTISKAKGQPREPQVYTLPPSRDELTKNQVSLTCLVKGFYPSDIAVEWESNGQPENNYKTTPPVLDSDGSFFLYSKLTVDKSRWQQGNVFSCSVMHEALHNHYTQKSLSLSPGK

With MMP-2 protease, the “Percentage of cleaved protein determined using WB after incubation with activated MMP-2 protease” value was “Pro054, Pro055, Pro061, and Pro064 were sensitive to MMP-2 digestion and protease-dependent removal of masking and half-life extension domains” in data set [1]; “Pro054, Pro055, Pro061, and Pro064 were sensitive to MMP-2 digestion and protease-dependent removal of masking and half-life extension domains” in data set [2]; “Pro054, Pro055, Pro061, and Pro064 were sensitive to MMP-2 digestion and protease-dependent removal of masking and half-life extension domains” in data set [3]; “Pro054, Pro055, Pro061, and Pro064 were sensitive to MMP-2 digestion and protease-dependent removal of masking and half-life extension domains” in data set [5]. Also, the “Fraction of cleaved Pro101 determined by WB” value in data set [4] is listed as “effective linker cleavage in Pro101”.

Values taken from US20260132180.
